From paper PMC4172982

Assays:
[1] = target: 26S proteasome from BALB/c mouse (mouse (endogenous in BALB/c brain)) (UniProt O35226)
[2] = target: G-actin (UniProt P60709); details: cited from earlier work
[3] = target: F-actin (UniProt P60709); details: cited from earlier work
[4] = target: CaM (UniProt P0DP23); assay: SPR; details: cited from earlier work

Chain of UniProt O35226 (O35226 whole entry, looked up): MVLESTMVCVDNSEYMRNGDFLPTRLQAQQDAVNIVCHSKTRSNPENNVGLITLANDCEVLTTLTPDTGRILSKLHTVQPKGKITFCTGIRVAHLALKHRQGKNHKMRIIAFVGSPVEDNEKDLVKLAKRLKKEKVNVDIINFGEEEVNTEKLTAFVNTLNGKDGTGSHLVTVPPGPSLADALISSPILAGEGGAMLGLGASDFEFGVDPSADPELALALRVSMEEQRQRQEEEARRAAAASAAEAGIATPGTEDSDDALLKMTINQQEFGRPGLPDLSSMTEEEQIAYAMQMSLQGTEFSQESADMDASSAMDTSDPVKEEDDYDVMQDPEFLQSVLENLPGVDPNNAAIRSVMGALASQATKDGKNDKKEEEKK

Substance “Histone H1.3 human, recombinant (from UniProt P16402 1-221) (natural protein)” has a theoretical KD estimated from the inhibition curve of 26S-mediated MBP hydrolysis, assuming that bound 26S proteasome cannot degrade MBP (blocks m1 with m2) [1] of 1000 nM.
In the case of MBP (from UniProt P02686), the Kd [2] is given as 66.6 nM and the Kd [3] is given as 65.3 nM.
For MBP (from UniProt P04370), the Kd [4] is given as 200 nM.
In the case of MBP (from UniProt P81558), the Kd [4] is listed as 148 nM.
